“Also recorded” adds a separate entry of the source.

Data set [1] concerns human endothelial cells. The experiment in a line: Endothelial cell chemotaxis / migration (Boyden chamber). Particulars: for chemotaxis of human endothelial cells: umbilical cord and hepatic AECs or VECs, growth factor stimuli. It counts as cell-based. The method, then: Migration is assessed using the 48-well Boyden chamber and 8 μm pore size collagen-coated (10 μg/ml rat tail collagen; Collaborative Laboratories) polycarbonate filters (Osmonics, Inc.). The bottom chamber wells receive 27-29 μl of DMEM medium alone (baseline) or medium containing chemo-attractant (bFGF, VEGF or Swiss 3T3 cell conditioned medium). The top chambers receive 45 μl of HUVEC cell suspension (1×10^6 cells/ml) prepared in DMEM+1% BSA with or without test compound. After 5 h incubation at 37° C., the membrane is rinsed in PBS, fixed and stained in Diff-Quick solutions. The filter is placed on a glass slide with the migrated cells facing down and cells on top are removed using a Kimwipe. The testing is performed in 4-6 replicates and five fields are counted from each well. Negative unstimulated control values are subtracted from stimulated control and drug treated values and data is plotted as mean migrated cell±S.D. IC50 is calculated from the plotted data.
Chemotaxis of HUVECs to VEGF was assessed using a modified Boyden chamber, transwell membrane filter inserts in 24 well plates, 6.5 mm diam, 8 μm pore size, 10 μm thick matrigel coated, polycarbonate membranes (BD Biosciences). The cell suspensions of HUVECs (2×10^5 cells/ml) in 200 μl of EBM were seeded in the upper chamber and the soluble EphB4 protein were added simultaneously with stimulant (VEGF or bFGF) to the lower compartment of the chamber and their migration across a polycarbonate filter in response to 10-20 ng/ml of VEGF with or without 100 nM-1 μM test compound was investigated. After incubation for 4-24 h at 37° C., the upper surface of the filter was scraped with swab and filters were fixed and stained with Diff Quick. Ten random fields at 200× mag were counted and the results expressed as mean # per field. Negative unstimulated control values were subtracted from stimulated control and protein treated sample values and the data was plotted as mean migrated cell±S.D. IC50 was calculated from the plotted data.

Data set [2] concerns SCC15 tumors. The experiment in a line: SCC15 tumor growth and histology in nude mice, soluble EphB4. In kind it is in vivo, mouse. Particulars: for SCC15 tumor growth: Balb/C nu/nu mice. The method, then:
The same model was used to determine the effects of soluble EphB4 in vivo. SCC15 tumors implanted subcutaneously, pre-incubated with matrigel and with or w/o growth factors, as well as implanted sc alone, and mice treated sc or ip daily with 1-5 μg of soluble EphB4 were carried out.
Subcutaneously inject logarithmically growing SCC15, head and neck squamous cell carcinoma cell line, at 5×10^6 cell density; with or without EphB4 ECD in the presence or absence of human bFGF, into athymic Balb/c nude mice, along with Matrigel (BD Bioscience) synthetic basement membrane (1:1 v/v), and examine tumors within 2 weeks. […] There was no difference in body weight between the groups. Immunohistochemical examination of cross-sections of resected tumors and TUNEL-positive apoptosis or necrosis, CD34 immunostaining, and BrdU proliferation rate will be performed, after deparaffinized, rehydrated, and quenched for endogenous peroxidase activity, and after 10 min permeabilization with proteinase K. Quantitative assessment of vascular densities will also be performed. Local intratumoral delivery or IV delivery of EphB4 ECD will also be performed twice a week.
30 athymic nude mice, BALB/c (nu/nu), were each injected with 1×10^6 B16 melanoma cells with 0.1 ml PBS mixed with 0.1 ml matrigel or 1.5×10^6 SCC15 cells resuspended in 200 μl of DMEM serum-free medium and injected subcutaneously on day 0 on the right shoulder region of mice. Proteins were injected intravenously or subcutaneously, around the tumor beginning on day 1 at a loading dose of 4 μg/mg, with weekly injections of 2 ug/mg. (10 μg/g, 50 μg/kg/day), and at 2 weeks post-inoculation. Mice are sacrificed on Day 14. Control mice received PBS 50 μl each day.
All animals were treated under protocols approved by the institutional animal care committees. Cancer cells (5×10^6) were subcutaneously inoculated into the dorsal skin of nude mice. When the tumor had grown to a size of about 100 mm^3 (usually it took 1[…]2 days), sEphB4 was either intraperitoneally or subcutaneously injected once/day, and tumorigenesis was monitored for 2 weeks. Tumor volume was calculated according to the formula a^2xb, where a and b are the smallest and largest diameters, respectively. A Student's t test was used to compare tumor volumes, with P<0.05 being considered significant.
Tumors were fixed in 4% formaldehyde, embedded in paraffin, sectioned by 5 μm, and stained with hematoxylin[…]eosin. Vessel density was semi-quantitated using a computer-based image analyzer (five fields per section from three mice in each group).

The test system of data set [3] is EphB4 receptor. The experiment in a line: EphB4 receptor phosphorylation in HUVECs (Western blot). It counts as cell-based, human. Particulars: serum-starved HUVECs, in the presence of EphrinB2Fc. An excerpt: We examined EphB4 receptor phosphorylation in HUVECs by performing Western blot analyses with lysates from soluble EphB4-treated cells and antibodies against phosphor-tyrosine. […] Ephrin B2Fc without the soluble EphB4 protein induced phosphorylation of EphB4 receptor (FIG. 22).

The test system of data set [4] is HUVECS. The experiment in a line: MTS cytotoxicity assay. It counts as cell-based, human. A general note: Tetrazolium assays rely on reduction of a dye to a coloured formazan, in cell work by metabolically active cells.
Data set [5] deals with SCC15 tumors. Description: SCC15 tumor growth and histology in nude mice, soluble EphB4. It counts as in vivo, mouse. Particulars: treated vs control tumors, CD31.
Data set [6] has as its system KS-SLK cells. The experiment in a line: KS-SLK cord formation on Matrigel. In kind it is cell-based, human. The method, then: Cord formation assay of HUVEC in Matrigel™ (upper row). Cells in exponential growth phase were treated overnight with the indicated concentrations of EphB4 extracellular domain (ECD) prior to plating on Matrigel™. Cells were trypsinized and plated (1×10^5 cells/well) in a 24-well plate containing 0.5 ml Matrigel™. Shown are representative 20× phase contrast fields of cord formation after 8 hr plating on Matrigel™ in the continued presence of the test compounds as shown. Original magnification 200×. KS-SLK cells treated in a similar manner (middle row) in a cord formation assay on Matrigel™. […] After 7 days the plugs were removed, sectioned and stained with H&E to visualize cells migrating into the matrix.

The test system of data set [7] is HNSCC-15 cells. Description: Cell cycle FACS of HNSCC cells with soluble EphB4ECD. It counts as cell-based, human.

B1: B4ECv3: soluble extracellular domain derivative of human EphB4, SEQ ID NO:1 (protein)
chain: MELRVLLCWASLAAALEETLLNTKLETADLKWVTFPQVDGQWEELSGLDEEQHSVRTYEVCEVQRAPGQAHWLRTGWVPRRGAVHVYATLRFTMLECLSLPRAGRSCKETFTVFYYESDADTATALTPAWMENPYIKVDTVAAEHLTRKRPGAEATGKVNVKTLRLGPLSKAGFYLAFQDQGACMALLSLHLFYKKCAQLTVNLTRFPETVPRELVVPVAGSCVVDAVPAPGPSPSLYCREDGQWAEQPVTGCSCAPGFEAAEGNTKCRACAQGTFKPLSGEGSCQPCPANSHSNTIGSAVCQCRVGYFRARTDPRGAPCTTPPSAPRSVVSRLNGSSLHLEWSAPLESGGREDLTYALRCRECRPGGSCAPCGGDLTFDPGPRDLVEPWVVVRGLRPDFTYTFEVTALNGVSSLATGPVPFEPVNVTTDREVPPAVSDIRVTRSSPSSLSLAWAVPRAPSGAWLDYEVKYHEKGAEGPSSVRFLKTSENRAELRGLKRGASYLVQVRARSEAGYGPFGQEHHSQTQLDESEGWREQGSKRAILQIEGKPIPNPLLGLDSTRTGHHHHHH
modifications: Recombinant B4ECv3 protein
For B1, the “chemotaxis of human endothelial cells” value in data set [1] is on record as “blocked chemotaxis”; in data set [1] (listed as EphB4v3) it was “inhibits chemotaxis”. Moreover, in data set [2], the SCC15 tumor growth entry is listed as “inhibits”.

B2: soluble EphB4: soluble EphB4 extracellular domain protein; exact construct not stated at the results (protein)
chain: LEETLLNTKLETADLKWVTFPQVDGQWEELSGLDEEQHSVRTYEVCDVQRAPGQAHWLRTGWVPRRGAVHVYATLRFTMLECLSLPRAGRSCKETFTVFYYESDADTATALTPAWMENPYIKVDTVAAEHLTRKRPGAEATGKVNVKTLRLGPLSKAGFYLAFQDQGACMALLSLHLFYKKCAQLTVNLTRFPETVPRELVVPVAGSCVVDAVPAPGPSPSLYCREDGQWAEQPVTGCSCAPGFEAAEGNTKCRACAQGTFKPLSGEGSCQPCPANSHSNTIGSAVCQCRVGYFRARTDPRGAPCTTPPSAPRSVVSRLNGSSLHLEWSAPLESGGREDLTYALRCRECRPGGSCAPCGGDLTFDPGPRDLVEPWVVVRGLRPDFTYTFEVTALNGVSSLATGPVPFEPVNVTTDREVPPAVSDIRVTRSSPSSLSLAWAVPRAPSGAVLDYEVKYHEKGAEGPSSVRFLKTSENRAELRGLKRGASYLVQVRARSEAGYGPFGQEHHSQTQLDESEGWREQLA
As to B2, the “level of phosphorylated EphB4” value in data set [3] was “rapid and transient decrease”. Also, the cytotoxic effect result in data set [4] was “no detectable cytotoxic effect”. The “Microvessel density in the outer viable rim of tumor cells” value in data set [5] is recorded as “similar”. In addition, the cord formation result in data set [6] is listed as “inhibits”. For the same molecule, the “bFGF and VEGF-induced migration” value in data set [1] (HUV/AEC, Boyden chamber, dose-dependent) is “significantly inhibited”. In addition, in data set [2], the SCC15 tumor growth entry is “inhibits; also recorded: reduced growth rate”. For the same molecule, the tumor angiogenesis entry in data set [2] (SCC15, premixed with Matrigel plus growth factors, 10 to 14 days, FITC-lectin) is recorded as “marked inhibition”. The “Tumor volumes versus vehicle groups” value in data set [2] (co-injected with Matrigel, presence and absence of growth factor, within 2 weeks) is reported as “three-fold smaller”. In data set [2] (inner viable rim and central necrotic core, Masson's Trichrome), the “Fibrin deposition in and around blood vessels” value is given as “increased”. Also, in data set [2] (lungs, liver and kidneys), the “effects on the endothelium in normal tissues” value is given as “no such effects”. For the same molecule, the “Necrosis, percentage of tumor section area” value in data set [2] (treated vs control, p<0.02) is “more extensive”. In addition, the body weight entry in data set [2] (tumor-bearing mice) is listed as “no significant effect”; in data set [2] (tumor-bearing mice, listed as EphB4 ECD) it was “no difference”. Also, the tolerability in vivo entry in data set [2] (tumor-bearing mice, general well-being) is listed as “well tolerated”. Moreover, in data set [7], the cell cycle distribution result is “accumulation in subG0/G1 and S/G2 phases”.

The record behind these values is patent US9533026B2, “Polypeptide compounds for inhibiting angiogenesis and tumor growth” (VasGene Therapeutics, Inc., priority 2004, dated 2017).
